This note sets out measurements from patent US20260242729A1.

For the test, the target named is CD28 on the surface of PBMCs and T cells (human) (UniProt P10747). In words: flow cytometry; CD28 positive fraction after Fab-multimer magnetic selection, D-biotin release and washing; remaining CD28.3 Fab monomers detected with the α-Ig kappa mAb; live (PI-negative) CD3+ cells; right dot plot.

Substance “αCD28 Fab fragment derived from the anti-human CD28 antibody CD28.3, heavy chain C-terminally fused to Twin-Strep-tag (monomeric Fab)” gave a percentage of cells within gate of 5.91%.
